Reference: PMC4436075 (mBio, 2015)

Molecular target: the molecule itself
Assay: cross-linking

B1: Alg44-6His (natural protein, Pseudomonas aeruginosa, UniProt Q9HY69 1-389, looked up)
chain: MNTAVNVNVVHESEAQRQFARVKLPARIRYIGANREGVDARLLDLSAGGFAFTASGAPIQPGDLYKGKLLFQVDSISFSLEVEFQVRSVDPASRRVGCEFQNLKPREVAALRYLITSYLAGEVIGVGDMLNTLQRENFTKARKQGGGNGGMGFFGRVRAVTLSTAIFVVGVGAFAFILNQMYNLYFVTHADSGVVSVPNQQITMPREGTVQSLLGPNAEVAKGAPIATFSANLLDMLKGNLTEEQLNPGNIEKLFGHQMKGTLTSPCDCRVVQQLVADGQYANKGQVIFTLAPRDSVASIEARFPYRNAAELAPGTRVNFQVAGDGVNRSGRIVNTAPVDGDLSSEIRVQIQPDQPLDAQYAGRPAEVSIGGLPGRTLLNKAVTLATAR
stoichiometry N: 2
